The text below walks through data of the supplement of paper PMC9732359.

± gives the uncertainty stated by the source.

The nature of the data set: protein stability index of a GFP-peptide fusion (yeast GPS) (PSI 1-4); higher = more stable; sorted into four equal gates, so the index is relative within each strain. The gist of the method: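 Tiled yeast protein peptides of 17 residues were each joined downstream of GFP, on plasmids that also express Cherry. The pooled library was maintained in yeast, and mid-log cultures in leucine-free medium were sorted into four equal gates on the GFP/Cherry ratio. Plasmids from every gate were amplified by PCR and sequenced on Illumina, with barcodes linking reads to strains. The protein stability index of a peptide is its gate-number-weighted read frequency summed over the gates.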

SRYEPKVFDCGDNIVMS [PRE7]: the protein stability index by setting is: (doa10∆) 2.49 ± 0.12; (pdr5∆) 2.78 ± 0.11; (san1∆) 2.89 ± 0.11; (ubr1∆) 2.06 ± 0.23.

As for FRGARKNKGLVVSPYDY [DIB1], the protein stability index reads like this: (doa10∆) 2.58 ± 0.077; (pdr5∆) 2.54 ± 0.088; (san1∆) 2.53 ± 0.09; (ubr1∆) 2.82 ± 0.081.

IASEVLIKQVPRLLGPQ [RPL1A]: the protein stability index amounted to 2.28 ± 0.13 (doa10∆), 1.87 ± 0.14 (pdr5∆), 2.27 ± 0.15 (san1∆) and 1.67 ± 0.068 (ubr1∆).

INSIDTTESSDLKEGLQ [GRR1]: the protein stability index reads like this: (doa10∆) 2.54 ± 0.062; (pdr5∆) 2.6 ± 0.046; (san1∆) 3.18 ± 0.037; (ubr1∆) 3.05 ± 0.032.

In the case of QREAAAEYAQLLAKRLS [RPS6A], the protein stability index reads like this: (doa10∆) 1.78 ± 0.059; (pdr5∆) 1.6 ± 0.055; (san1∆) 1.7 ± 0.11; (ubr1∆) 2.11 ± 0.046.

With PQALRVLRLKPGRKYTT [RPL16A], the protein stability index came out at 2.97 ± 0.044 (doa10∆), 3.05 ± 0.046 (pdr5∆), 3.13 ± 0.046 (san1∆) and 3.21 ± 0.05 (ubr1∆).

Turning to IQEIKESVELPLTHPEL [RPT2], the protein stability index was 2.7 ± 0.073 (doa10∆), 2.97 ± 0.069 (pdr5∆), 2.74 ± 0.068 (san1∆) and 2.75 ± 0.035 (ubr1∆).

Sequence DNKMDSVKEDVKNNQEL [SMC4] returned a protein stability index (doa10∆) of 2.85 ± 0.14, a protein stability index (pdr5∆) of 3.02 ± 0.084, a protein stability index (san1∆) of 2.51 ± 0.17 and a protein stability index (ubr1∆) of 3.36 ± 0.14.

For PQDLTFNAGSNPPSYQS [RPB7], the protein stability index runs as follows: (doa10∆) 2.96 ± 0.17; (pdr5∆) 2.99 ± 0.11; (san1∆) 3.1 ± 0.17; (ubr1∆) 2.86 ± 0.096.

With KSAVSHAPAYHRSKKDQ [IRR1], the protein stability index was found to be 3.13 ± 0.16 (doa10∆), 2.79 ± 0.11 (pdr5∆) and 3.1 ± 0.069 (ubr1∆).

Consider NFEATKKSVLKQVQDFE [COR1], for which the protein stability index came out at 2.76 ± 0.13 (doa10∆), 2.39 ± 0.25 (pdr5∆), 3.07 ± 0.15 (san1∆) and 2.91 ± 0.072 (ubr1∆).

On to GIAIGLNKGKKVTSMTP [RPL36A], for which the protein stability index is, setting by setting: (doa10∆) 3.08 ± 0.18; (pdr5∆) 3.13 ± 0.12; (ubr1∆) 3.15 ± 0.1.

In turn, DMDPLAVSAASVVSMSN [SIR2] had a protein stability index (doa10∆) of 1.67 ± 0.065, a protein stability index (pdr5∆) of 2.31 ± 0.12, a protein stability index (san1∆) of 1.71 ± 0.18 and a protein stability index (ubr1∆) of 2.19 ± 0.072.

Turning to TISSLFVQLCEMGYLIQ [RPC82], the protein stability index amounted to 1.85 ± 0.061 (doa10∆), 1.69 ± 0.078 (pdr5∆), 1.61 ± 0.16 (san1∆) and 2.39 ± 0.081 (ubr1∆).

Consider KIRITLTSTKVKQLENV [RPS20], for which the protein stability index was found to be 1.77 ± 0.076 (doa10∆), 2.11 ± 0.12 (pdr5∆), 1.94 ± 0.11 (san1∆) and 2.25 ± 0.068 (ubr1∆).

In turn, RAASVGSLKLIELLCGL [NAS6] came in with a protein stability index (doa10∆) of 2.18 ± 0.075, a protein stability index (pdr5∆) of 2.13 ± 0.11, a protein stability index (san1∆) of 1.94 ± 0.11 and a protein stability index (ubr1∆) of 1.83 ± 0.063.

On to IPGLSAGVNNDNTKESK [RTT102], for which the protein stability index came to 3.59 ± 0.11 (doa10∆), 3.52 ± 0.083 (pdr5∆), 3.38 ± 0.071 (san1∆) and 3.35 ± 0.081 (ubr1∆).

In the case of CIFNFLQQQTPVTIWLF [SME1], the protein stability index by setting is: (doa10∆) 1.18 ± 0.069; (pdr5∆) 1.47 ± 0.066; (san1∆) 1.25 ± 0.084; (ubr1∆) 1.15 ± 0.052.

TPATIVKKPTFTFGQST [YOR098C/NUP1]: the protein stability index is, setting by setting: (doa10∆) 2.84 ± 0.066; (pdr5∆) 3.13 ± 0.074; (san1∆) 3.09 ± 0.058; (ubr1∆) 3.43 ± 0.075.

TAAFTAMICEAKGLIEN [YJR042W/NUP85]: the protein stability index was 2.62 ± 0.067 (doa10∆), 2.86 ± 0.06 (pdr5∆), 2.72 ± 0.068 (san1∆) and 2.94 ± 0.052 (ubr1∆).

Consider GSKSDGSAATSGFEFSK [RPN1], for which the protein stability index by setting is: (doa10∆) 2.7 ± 0.14; (pdr5∆) 3.09 ± 0.14; (san1∆) 2.72 ± 0.14; (ubr1∆) 3.1 ± 0.12.

LQLSKTPLSIKIMVAEW [SRB8]: the protein stability index reads like this: (doa10∆) 2.31 ± 0.17; (pdr5∆) 2.84 ± 0.072; (san1∆) 2.69 ± 0.13; (ubr1∆) 3 ± 0.12.

ATDLAGPANNPNEFMQF [PRP8]: the protein stability index stood at 3.21 ± 0.063 (doa10∆), 3.35 ± 0.059 (pdr5∆), 3.23 ± 0.033 (san1∆) and 3.4 ± 0.05 (ubr1∆).

With GSAINHHRIFDSSAHFK [YMR129W/POM152], the protein stability index reads like this: (doa10∆) 2.57 ± 0.049; (pdr5∆) 2.46 ± 0.062; (san1∆) 2.64 ± 0.075; (ubr1∆) 2.71 ± 0.039.

On to LRQKHEFLEDFDLVRNI [SMC2], for which the protein stability index amounted to 3.1 ± 0.11 (doa10∆), 3.05 ± 0.098 (pdr5∆), 3.14 ± 0.063 (san1∆) and 3.34 ± 0.099 (ubr1∆).

For QAGVTKASVTIVFDNTD [SMC2], the protein stability index is, setting by setting: (doa10∆) 2.23 ± 0.071; (pdr5∆) 2.76 ± 0.058; (san1∆) 2.73 ± 0.053; (ubr1∆) 3.09 ± 0.047.

Take AQTIGRNSKTVREFLEK [PRE6]: the protein stability index runs as follows: (doa10∆) 2.76 ± 0.2; (pdr5∆) 3.27 ± 0.29; (san1∆) 3.29 ± 0.07; (ubr1∆) 3.02 ± 0.14.

Consider IGLVKCTQMTDEGLLNM [GRR1], for which the protein stability index was found to be 3.01 ± 0.068 (doa10∆), 2.91 ± 0.066 (pdr5∆), 2.81 ± 0.057 (san1∆) and 2.91 ± 0.043 (ubr1∆).

With LQSDKNFLDNCLFENDL [ITC1], the protein stability index reads like this: (doa10∆) 2.13 ± 0.079; (pdr5∆) 3.03 ± 0.073; (san1∆) 2.92 ± 0.055; (ubr1∆) 3.01 ± 0.059.

For DHNGVPFPQYPAGMNET [ITC1], the protein stability index is, setting by setting: (doa10∆) 1.97 ± 0.12; (pdr5∆) 2.59 ± 0.11; (san1∆) 2.8 ± 0.19; (ubr1∆) 2.42 ± 0.064.

Regarding TSIEKSSEILSYLSNSL [YML103C/NUP188], the protein stability index was 2.21 ± 0.072 (doa10∆), 2.57 ± 0.076 (pdr5∆), 1.49 ± 0.1 (san1∆) and 2.14 ± 0.046 (ubr1∆).

For RNAEFKVSKNSTSFKNP [YMR153W/NUP53], the protein stability index is 2.79 ± 0.093 (doa10∆), 2.13 ± 0.062 (pdr5∆), 2.14 ± 0.1 (san1∆) and 2.46 ± 0.076 (ubr1∆).

For HTVTNSPNPTLQPVIPG [SNF5], the protein stability index reads like this: (doa10∆) 2.55 ± 0.052; (pdr5∆) 2.32 ± 0.049; (san1∆) 2.53 ± 0.052; (ubr1∆) 2.78 ± 0.042.

As for FMRQNLEWNMANLLFKK [RPC82], the protein stability index reads like this: (doa10∆) 2.82 ± 0.11; (pdr5∆) 1.94 ± 0.055; (san1∆) 2.49 ± 0.082; (ubr1∆) 2.85 ± 0.063.

In turn, LYNVMGINKKKLLAISK [RPC31] registered a protein stability index (doa10∆) of 2.83 ± 0.26, a protein stability index (pdr5∆) of 2.3 ± 0.16, a protein stability index (san1∆) of 3.67 ± 0.095 and a protein stability index (ubr1∆) of 3.5 ± 0.26.

The sequence QDEEQTEHLTELSDNEE [YCG1] showed a protein stability index (doa10∆) of 3.29 ± 0.09, a protein stability index (pdr5∆) of 3.37 ± 0.075, a protein stability index (san1∆) of 3.33 ± 0.054 and a protein stability index (ubr1∆) of 3.02 ± 0.062.
